According to publication PMC7053999, “ParB spreading on DNA requires cytidine triphosphate in vitro” (eLife, 2020):
Positions count from the first letter of the chain named. Names may count otherwise.

Assays:
[1] = target: T1, TetR (class B, from Tn10) (Escherichia coli, UniProt P04483); test: BLI, release of TetR roadblock from tetO DNA; type: binding; settings: 3 uM ahTc, 1 uM TetR, 1 uM ParB, 1 mM CTP, 170 bp closed parS-tetO DNA, Mg2+, 22 °C
T1 construct: C-terminal His6 (pET21b), E. coli Rosetta (DE3)
T1 sequence (P04483 whole entry): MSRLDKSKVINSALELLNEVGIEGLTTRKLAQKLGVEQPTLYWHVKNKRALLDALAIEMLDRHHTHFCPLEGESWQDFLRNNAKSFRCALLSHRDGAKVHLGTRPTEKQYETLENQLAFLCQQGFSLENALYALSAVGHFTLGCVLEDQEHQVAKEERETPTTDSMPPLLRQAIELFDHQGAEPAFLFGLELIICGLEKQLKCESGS

Zymomonas mobilis ParB = target: T2, Zymomonas mobilis ParB (Zymomonas mobilis, UniProt F8ETX3); test: BLI, ParB accumulation on closed […] bp parS DNA; type: biochemical; settings: 0.01 mM CTP, 1 uM ParB, Mg2+, pH 8.0, 22 °C
T2 construct: N-terminal His6-MBP (TEV) tag kept, E. coli Rosetta (DE3); chromosomal ParB
T2 sequence (F8ETX3 1-311): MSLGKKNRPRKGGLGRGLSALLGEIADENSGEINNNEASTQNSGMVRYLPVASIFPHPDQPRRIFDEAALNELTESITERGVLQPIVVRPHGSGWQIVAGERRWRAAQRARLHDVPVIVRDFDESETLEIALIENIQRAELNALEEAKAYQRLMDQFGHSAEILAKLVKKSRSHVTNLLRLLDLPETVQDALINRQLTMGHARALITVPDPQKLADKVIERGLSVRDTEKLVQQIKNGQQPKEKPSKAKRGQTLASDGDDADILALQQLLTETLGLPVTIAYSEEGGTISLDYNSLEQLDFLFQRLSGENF

[2] = target: T3, Xanthomonas campestris ParB (Xanthomonas campestris, UniProt Q8P466); test: BLI, ParB accumulation on closed […] bp parS DNA; type: biochemical; settings: 0.01 mM CTP, 1 uM ParB, Mg2+, pH 8.0, 22 °C
T3 construct: N-terminal His6-MBP (TEV) tag kept, E. coli Rosetta (DE3); chromosomal ParB
T3 sequence (Q8P466 1-309): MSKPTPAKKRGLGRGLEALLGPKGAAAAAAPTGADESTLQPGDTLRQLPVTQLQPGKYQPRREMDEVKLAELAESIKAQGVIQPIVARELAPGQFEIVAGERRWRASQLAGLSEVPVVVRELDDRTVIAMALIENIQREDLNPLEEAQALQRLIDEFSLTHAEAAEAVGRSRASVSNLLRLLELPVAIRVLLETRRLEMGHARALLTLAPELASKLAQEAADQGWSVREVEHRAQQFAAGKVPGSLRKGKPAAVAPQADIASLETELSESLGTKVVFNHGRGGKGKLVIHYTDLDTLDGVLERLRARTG

Caulobacter ParB [3] = target: T4, Caulobacter ParB (Caulobacter vibrioides, UniProt B8GW30); test: DRaCALA membrane-spotting with radiolabelled CTP; type: binding; settings: 22 bp parS DNA needed, Mg2+, pH 8.0, room temperature; labelled compound
T4 construct: full-length, C-terminal His6 (pET21b), E. coli Rosetta (DE3), dimer

Caulobacter ParB [4] = target: T5, Caulobacter ParB (Caulobacter vibrioides, UniProt B8GW30, C297S); test: BLI, ParB accumulation on closed […] bp parS DNA; type: biochemical; settings: 1 mM CTP, 1 uM ParB, Mg2+, pH 8.0, 22 °C; legend prints C97S in one place
T5 construct: full-length, C-terminal His6 (pET21b), E. coli Rosetta (DE3), dimer
T5 sequence (B8GW30 whole entry C297S): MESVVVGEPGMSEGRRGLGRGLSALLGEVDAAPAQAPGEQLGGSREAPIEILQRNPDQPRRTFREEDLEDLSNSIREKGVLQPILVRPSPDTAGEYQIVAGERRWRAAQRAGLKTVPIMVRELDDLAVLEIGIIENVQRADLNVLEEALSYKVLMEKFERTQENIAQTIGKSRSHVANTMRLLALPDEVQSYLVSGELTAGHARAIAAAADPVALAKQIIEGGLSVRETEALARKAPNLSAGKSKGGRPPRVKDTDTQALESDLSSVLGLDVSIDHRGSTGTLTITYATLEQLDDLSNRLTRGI

Caulobacter ParB [5] = target: T6, Caulobacter ParB (Caulobacter vibrioides, UniProt B8GW30, Q35C/C297S); test: BMOE cross-linking of N-terminal domains, SDS-PAGE; type: binding; settings: 1 mM CTP, 10 uM ParB, no parS DNA, Mg2+, pH 7.4, room temperature
T6 construct: full-length, C-terminal His6 (pET21b), E. coli Rosetta (DE3), dimer
T6 sequence (B8GW30 whole entry Q35C/C297S, the tested form may be a part): as the sequence (B8GW30 whole entry C297S) above, with Q35C counted along it

[6] = target: T7, TetR-His6 (class B, from Tn10) (Tn10, UniProt P04483 1-207); test: BLI; 0.125-2 uM TetR, no NTP; BLI at 22 C: 100 mM Tris-HCl pH 8.0, 100 mM NaCl, 1 mM MgCl2, 0.005% Tween 20; 1 uM protein dimer. Pull-down: same buffer, room temperature, 5 min, 1 uM ParB, 1 mM NTP; settings: protein: recombinant; tags: C-terminal His6; chain copies: 2; label: 5' biotin on strand 1; blunt
T7 sequence (P04483 whole entry): as the sequence (P04483 whole entry) above

[7] = target: T8, Caulobacter ParB-His6 (WT) (Caulobacter crescentus, UniProt B8GW30 1-304); test: BLI; 1 mM CDP, Mg2+; BLI at 22 C: 100 mM Tris-HCl pH 8.0, 100 mM NaCl, 1 mM MgCl2, 0.005% Tween 20; 1 uM protein dimer. Pull-down: same buffer, room temperature, 5 min, 1 uM ParB, 1 mM NTP; settings: protein: recombinant; tags: C-terminal His6; chain copies: 2; label: 5' biotin on strand 1; blunt
T8 sequence: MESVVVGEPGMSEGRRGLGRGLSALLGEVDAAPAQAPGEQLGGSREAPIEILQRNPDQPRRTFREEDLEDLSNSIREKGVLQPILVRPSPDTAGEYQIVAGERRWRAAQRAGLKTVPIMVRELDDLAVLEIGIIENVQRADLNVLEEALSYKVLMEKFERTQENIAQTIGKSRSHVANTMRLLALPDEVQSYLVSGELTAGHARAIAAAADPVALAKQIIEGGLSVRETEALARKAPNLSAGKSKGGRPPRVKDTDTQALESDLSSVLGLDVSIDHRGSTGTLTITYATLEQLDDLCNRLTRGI

[8] = target: the molecule itself; test: cross-linking; 10 µM ParB (Q35C C297S) ± 1 mM NTP (CTP, CTPγS or other NTPs) ± 0.5 µM 22 bp parS dsDNA in 10 mM Tris-HCl pH 7.4, 100 mM NaCl, 1 mM MgCl2, room temperature, 15 min or 1-30 min time course, then 1 mM BMOE; SDS-PAGE, InstantBlue stain
[9] = target: T8, Caulobacter ParB-His6 (WT); test: BLI; 1 mM CTP (enhanced); BLI at 22 C: 100 mM Tris-HCl pH 8.0, 100 mM NaCl, 1 mM MgCl2, 0.005% Tween 20; 1 uM protein dimer. Pull-down: same buffer, room temperature, 5 min, 1 uM ParB, 1 mM NTP; settings: protein: recombinant; tags: C-terminal His6; chain copies: 2; label: biotin at both 5' ends; blunt; both ends tethered (closed); polymerase may add 3' A
[10] = target: T8, Caulobacter ParB-His6 (WT); test: BLI; 1 mM CTP, Mg2+; BLI at 22 C: 100 mM Tris-HCl pH 8.0, 100 mM NaCl, 1 mM MgCl2, 0.005% Tween 20; 1 uM protein dimer. Pull-down: same buffer, room temperature, 5 min, 1 uM ParB, 1 mM NTP; settings: protein: recombinant; tags: C-terminal His6; chain copies: 2; label: biotin at both 5' ends; blunt; both ends tethered (closed); polymerase may add 3' A
[11] = target: T8, Caulobacter ParB-His6 (WT); test: BLI; ParB-CTP prebound; dissociation in 1 mM CTP, Mg2+; BLI at 22 C: 100 mM Tris-HCl pH 8.0, 100 mM NaCl, 1 mM MgCl2, 0.005% Tween 20; 1 uM protein dimer. Pull-down: same buffer, room temperature, 5 min, 1 uM ParB, 1 mM NTP; settings: protein: recombinant; tags: C-terminal His6; chain copies: 2; label: biotin at both 5' ends; blunt; both ends tethered (closed); polymerase may add 3' A
[12] = target: T8, Caulobacter ParB-His6 (WT); test: BLI; 1 mM CTP, Mg2+ (no increase in response); BLI at 22 C: 100 mM Tris-HCl pH 8.0, 100 mM NaCl, 1 mM MgCl2, 0.005% Tween 20; 1 uM protein dimer. Pull-down: same buffer, room temperature, 5 min, 1 uM ParB, 1 mM NTP; settings: protein: recombinant; tags: C-terminal His6; chain copies: 2; label: biotin at both 5' ends; blunt; both ends tethered (closed); polymerase may add 3' A
[13] = target: T7, TetR-His6 (class B, from Tn10); test: BLI; no NTP, Mg2+; BLI at 22 C: 100 mM Tris-HCl pH 8.0, 100 mM NaCl, 1 mM MgCl2, 0.005% Tween 20; 1 uM protein dimer. Pull-down: same buffer, room temperature, 5 min, 1 uM ParB, 1 mM NTP; settings: protein: recombinant; tags: C-terminal His6; chain copies: 2; label: 5' biotin on strand 1; blunt
[14] = target: T8, Caulobacter ParB-His6 (WT); test: BLI; 0.125-2 uM ParB, no NTP; BLI at 22 C: 100 mM Tris-HCl pH 8.0, 100 mM NaCl, 1 mM MgCl2, 0.005% Tween 20; 1 uM protein dimer. Pull-down: same buffer, room temperature, 5 min, 1 uM ParB, 1 mM NTP; settings: protein: recombinant; tags: C-terminal His6; chain copies: 2; label: 5' biotin on strand 1; blunt

Molecule: Cc1c2c(c(O)c3c(O)cccc13)C(=O)[C@]1(O)C(=O)C(C(N)=O)=C(O)[C@@H](N(C)C)[C@@H]1C2 [Anhydrotetracycline]
- BLI, release of TetR roadblock from tetO DNA [1]: addition of anhydrotetracycline (ahTc), a negative effector of TetR

Molecule: Nc1ccn([C@@H]2O[C@H](COP(=O)(O)OP(=O)(O)OP(=O)(O)O)[C@@H](O)[C@H]2O)c(=O)n1 [CTP]
- BLI, ParB accumulation on closed 169 bp parS DNA (Zymomonas mobilis ParB): CTP facilitates the association of eight ParB orthologs with DNA
- BLI, ParB accumulation on closed 169 bp parS DNA [2]: CTP facilitates the association of eight ParB orthologs with DNA
- DRaCALA membrane-spotting with radiolabelled CTP (Caulobacter ParB [3]): Caulobacter ParB binds to radiolabeled CTP in the presence of parS DNA
- BLI, ParB accumulation on closed 169 bp parS DNA (Caulobacter ParB [4]): Both ParB (C297S) and ParB (Q35C C297S) were competent at spreading
- BMOE cross-linking of N-terminal domains, SDS-PAGE (Caulobacter ParB [5]): cross-linking of ParB (Q35C C297S) was also enhanced by CTP and CTPγS

B1: 20 bp parS (dsDNA)
DNA 1: GGGATGTTTCACGTGAAACA
DNA 2: TGTTTCACGTGAAACATCCC
- binding result [6]: no binding
- binding result [7]: binds

B2: Caulobacter ParB-His6 (Q35C C297S) (natural protein, Caulobacter crescentus, UniProt P0CAV8 1-304, looked up)
chain: T8 sequence with Q35C, C297S
notes: ParB, chromosome partitioning protein of Caulobacter crescentus; the cross-link reports engagement of the N-terminal domains of two subunits; The lone native cysteine C297 was changed to serine and Q35C was engineered in the N-terminal domain; Cloning in pET21b may add linker residues before the His6 tag (surmised); also called ParB (Q35C C297S); ParB (C297S Q35C); not shown: His6, C-terminal, …
- binding result [8]: binds

B3: 170 bp parS-tetO closed DNA (dsDNA)
DNA 1: CGCCAGGGTTTTCCCAGTCACGACGTTGTAAAACGACGGCCAGAATTCGCAACGTGTGTTTCACGTGAAACAGCCTTGAACTGATAACGACTCTATCATTGATAGAGTGTTCTCTCCACGGGATCCCCAGGCATGCAAGCTTGGCGTAATCATGGTCATAGCTGTTTCCT
DNA 2: AGGAAACAGCTATGACCATGATTACGCCAAGCTTGCATGCCTGGGGATCCCGTGGAGAGAACACTCTATCAATGATAGAGTCGTTATCAGTTCAAGGCTGTTTCACGTGAAACACACGTTGCGAATTCTGGCCGTCGTTTTACAACGTCGTGACTGGGAAAACCCTGGCG
- binding result [9]: binds

B4: 169 bp parS closed DNA (dsDNA)
DNA 1: CGCCAGGGTTTTCCCAGTCACGACGTTGTAAAACGACGGCCAGTGAATTCGAGCTCGGTACCCGCAGGAGGACGTAGGGTAGGGGGATGTTTCACGTGAAACAGGGGATCCTCTAGAGTCGACCTGCAGGCATGCAAGCTTGGCGTAATCATGGTCATAGCTGTTTCCT
DNA 2: AGGAAACAGCTATGACCATGATTACGCCAAGCTTGCATGCCTGCAGGTCGACTCTAGAGGATCCCCTGTTTCACGTGAAACATCCCCCTACCCTACGTCCTCCTGCGGGTACCGAGCTCGAATTCACTGGCCGTCGTTTTACAACGTCGTGACTGGGAAAACCCTGGCG
- binding signal [10]: ~12 fold BLI response vs no NTP
- binding signal [11]: ~5 fold slower dissociation vs buffer without CTP

B5: 169 bp scrambled parS closed DNA (dsDNA)
DNA 1: B4 DNA 1 with T88A, G89A, T92A, G96T, T97G, G98A, A99G, A100T, A101T, C102T
DNA 2: B4 DNA 2 with G68A, T69A, T70A, T71C, C72T, A73C, C74A, A78T, C81T, A82T
- binding result [12]: no binding

B6: 28 bp tetO (dsDNA)
DNA 1: GGGGACTCTATCATTGATAGAGTATGC
DNA 2: GCATACTCTATCAATGATAGAGTCCCC
- binding result [13]: binds
- binding result [14]: no binding
